The values that follow come from patent publication US20260193348A1 (ANTENGENE BIOLOGICS, published 2026).

Test [1] addresses T1, CD3 on T cells / Jurkat cells (human, UniProt P07766 23-207; P04234 22-171; P09693 23-182).
T1 construct: whole, on cells; Native CD3 complex on CD3+ T cells isolated from normal donors or on Jurkat cells; also called human CD3; CD3+ T cells
In words: FACS on Jurkat cells.

Test [2] deals with T2, GPRC5D on multiple myeloma cells (human, UniProt Q9NZD1 1-345).
T2 construct: whole, on cells; Endogenous GPRC5D on multiple myeloma cell lines; also called G-protein coupled receptor family C group 5 member D; MM.1S, MOLP-8, L363, RPMI8226 cells
T2 sequence (Q9NZD1 whole entry): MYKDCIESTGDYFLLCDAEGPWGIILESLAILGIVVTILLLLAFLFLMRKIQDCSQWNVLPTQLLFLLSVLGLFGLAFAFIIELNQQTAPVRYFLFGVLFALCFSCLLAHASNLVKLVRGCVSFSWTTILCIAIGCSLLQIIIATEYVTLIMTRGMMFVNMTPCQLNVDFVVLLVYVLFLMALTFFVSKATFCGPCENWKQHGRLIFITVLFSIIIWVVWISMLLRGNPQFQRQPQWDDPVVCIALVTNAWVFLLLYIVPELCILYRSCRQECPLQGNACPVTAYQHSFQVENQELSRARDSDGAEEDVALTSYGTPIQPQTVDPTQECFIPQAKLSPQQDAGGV
In words: FACS on MM.1S cells.

The target of the next test is T3, CD3 on Jurkat cells (UniProt P07766 23-207; P04234 22-171; P09693 23-182).
T3 construct: whole, on cells; On the cell, CD3 stands in the TCR-CD3 complex; also called cluster of differentiation 3
T3 sequence (P07766 23-207, chain 1 of 3): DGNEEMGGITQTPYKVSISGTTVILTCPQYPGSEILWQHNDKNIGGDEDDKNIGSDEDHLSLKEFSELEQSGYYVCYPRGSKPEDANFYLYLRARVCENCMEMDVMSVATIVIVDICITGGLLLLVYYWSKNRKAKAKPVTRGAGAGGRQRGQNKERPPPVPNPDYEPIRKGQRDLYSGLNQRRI
T3 sequence (P04234 22-171, chain 2 of 3): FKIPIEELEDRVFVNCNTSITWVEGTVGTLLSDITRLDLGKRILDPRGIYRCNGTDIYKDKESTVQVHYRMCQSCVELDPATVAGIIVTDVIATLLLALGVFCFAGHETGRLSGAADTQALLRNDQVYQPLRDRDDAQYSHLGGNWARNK
T3 sequence (P09693 23-182, chain 3 of 3): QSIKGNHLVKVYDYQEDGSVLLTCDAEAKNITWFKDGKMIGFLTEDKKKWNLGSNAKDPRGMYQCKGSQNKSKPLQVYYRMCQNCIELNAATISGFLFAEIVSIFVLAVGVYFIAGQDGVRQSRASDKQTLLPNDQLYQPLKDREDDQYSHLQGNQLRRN
In words: FACS on Jurkat cells. On the procedure:
The binding affinities of the generated humanized Fab-scFv-Fab bispecific antibodies were determined by FACS analysis. […] (a) Jurkat cells were washed by Staining Buffer (PBS+1% BSA) in round bottom 96-well plate. [0833] (b) Antibody dilutions and cells were added to each well, incubated at 4 degrees for 1 hour. [0834] (c) Cells were spined down at 300 g for 3 minutes, and the supernatants were discarded. [0835] (d) Cells were washed with Staining Buffer. […] (e) Step (d) was repeated and the cells were incubated for 0.5 hours at 4 degrees with secondary antibody in Staining Buffer. [0837] (f) After incubation, step (d)-(e) were repeated. […] (g) Staining Buffer was added and fluorescence signals were recorded by flow cytometry.
The binding affinities of the generated humanized Fab-scFv-Fab bispecific antibodies were determined by FACS analysis. The protocol for FACS analysis is identical to that described in Example 3.2, except that different test antibodies were used.

Test [3] deals with T4, GPRC5D on MM.1S cells (human, UniProt Q9NZD1 1-345). The test is described as follows: cell-based or functional assay.
T4 sequence (Q9NZD1 whole entry): as the sequence (Q9NZD1 whole entry) above
Test [4] deals with T4, GPRC5D on MM.1S cells. In words: cell-based or functional assay. This is another data set of the same source.

T1 sequence (P07766 23-207, chain 1 of 3): as the sequence (P07766 23-207, chain 1 of 3) above
T1 sequence (P04234 22-171, chain 2 of 3): as the sequence (P04234 22-171, chain 2 of 3) above
T1 sequence (P09693 23-182, chain 3 of 3): as the sequence (P09693 23-182, chain 3 of 3) above

B1: Bis-108+147-S102Q.H (bispecific antibody, V domains shown)
VH 1: EVQLVQSGAEVKKPGASVKVSCKASGYTFTSYVIHWVRQAPGQGLEWMGYFNPYNDGTKYNEEFKGRVTLTSDKSTSTAYMELRSLRSDDTAVYYCARGGVRRYFDVWGQGTTVTVSS
VL 1: DIQMTQSPSSLSASVGDRVTITCRASQDIGSNLNWLQQKPGKAIKRLIYATFGLDSGVPSRFSGSRSGTDFTLTISSLQPEDFATYYCQQYASFPYTFGGGTKVEIK
VH 2: EVQLVQSGAEVKKPGSSVKVSCKASGYTFTSYWMHWVRQAPGQCLEWMGNINPSSGATNYNEKFKSRVTLTVDKSTSTAYMELSSLRSEDTAVYYCARDRSQQYYFDYWGQGTTVTVSS
VL 2: DIVMTQSPDSLAVSLGERATINCKSSQSLLNSRSRKNYLAWYQQKPGQPPKLLIYWASTRESGVPDRFSGSGSGTDFTLTISSLQAEDVAVYYCTQSYTLRTFGCGTKVEIK
notes: Fab-scFv-Fab (2+1): first VH/VL = anti-GPRC5D Fabs, second VH/VL = anti-CD3 scFv
With B1, the binding result in test [1] and in test [2] was “binds” in each case.

B2: Bis-40E9-L2H3-D56G.H (bispecific antibody)
heavy 1: not shown
heavy 2: EVQLVQSGAEVKKPGASVKVSCKASGYTFTSYVIHWVRQAPGQGLEWMGYFNPYNDGTKYNEEFKGRVTLTSDKSTSTAYMELRSLRSDDTAVYYCARGGVRRYFDVWGQGTTVTVSSASTKGPSVFPLAPSSKSTSGGTAALGCLVKDYFPEPVTVSWNSGALTSGVHTFPAVLQSSGLYSLSSVVTVPSSSLGTQTYICNVNHKPSNTKVDKKVEPKSCGGGGSGGGGSEVQLVQSGAEVKKPGSSVKVSCKASGYTFSSYVIHWVRQAPGQCLEWMGYINPYNGVIKYNEKFKGRVTLTSDKSTSTAYMELSSLRSEDTAVYYCARDSYYSYDGFAYWGQGTLVTVSSGGGGSGGGGSGGGGSGGGGSEIVLTQSPDFQSVTPKEKVTITCSASSSVSYMHWYQQKPDQSPKRLIYDTSKLASGVPSRFSGSGSGTDFTLTINSLEAEDAATYYCQQWSSNPPTFGCGTKVEIKGGGGSGGGGSDKTHTCPPCPAPEAAGGPSVFLFPPKPKDTLMISRTPEVTCVVVDVSHEDPEVKFNWYVDGVEVHNAKTKPREEQYNSTYRVVSVLTVLHQDWLNGKEYKCKVSNKALPAPIEKTISKAKGQPREPQVCTLPPSREEMTKNQVSLSCAVKGFYPSDIAVEWESNGQPENNYKTTPPVLDSDGSFFLVSKLTVDKSRWQQGNVFSCSVMHEALHNHYTQKSLSLSPGK
light: DIQMTQSPSSLSASVGDRVTITCRASQDIGSNLNWLQQKPGKAIKRLIYATFGLDSGVPSRFSGSRSGTDFTLTISSLQPEDFATYYCQQYASFPYTFGGGTKVEIKRTVAAPSVFIFPPSDEQLKSGTASVVCLLNNFYPREAKVQWKVDNALQSGNSQESVTEQDSKDSTYSLSSTLTLSKADYEKHKVYACEVTHQGLSSPVTKSFNRGEC
notes: Fab-scFv-Fab format with LALA mutations
On to B2, for which, in the test with CD3 on Jurkat cells, the “Ratio of EC50 (relative to ATG-Bis-40E9)” value stood at 2.41 ratio and the “Ratio of Top MFI (relative to ATG-Bis-40E9)” value worked out at 0.55 ratio. Further, in the test with GPRC5D on MM.1S cells [3], the “Ratio of EC50 (relative to ATG-Bis-40E9), luciferase assay on MM.1S” value was 0.81 ratio and the “Ratio of Top RLU (relative to ATG-Bis-40E9), luciferase assay on MM.1S” value came to 1.01 ratio. Moreover, in the test with GPRC5D on MM.1S cells [4], the “Ratio of IC50 (relative to ATG-Bis-40E9), MM.1S cytotoxicity” value (shortened to “Ratio of IC50 (relative to ATG-Bis-40E9)”) worked out at 0.99 ratio and the “Ratio of Top cytotoxicity (relative to ATG-Bis-40E9), MM.1S cytotoxicity” value was found to be 1 ratio.

B3: Bis-40E9-L2H3-N55S.H (bispecific antibody, human IgG1, kappa, L234A L235A)
heavy 1: not shown
heavy 2: EVQLVQSGAEVKKPGASVKVSCKASGYTFTSYVIHWVRQAPGQGLEWMGYFNPYNDGTKYNEEFKGRVTLTSDKSTSTAYMELRSLRSDDTAVYYCARGGVRRYFDVWGQGTTVTVSSASTKGPSVFPLAPSSKSTSGGTAALGCLVKDYFPEPVTVSWNSGALTSGVHTFPAVLQSSGLYSLSSVVTVPSSSLGTQTYICNVNHKPSNTKVDKKVEPKSCGGGGSGGGGSEVQLVQSGAEVKKPGSSVKVSCKASGYTFSSYVIHWVRQAPGQCLEWMGYINPYSDVIKYNEKFKGRVTLTSDKSTSTAYMELSSLRSEDTAVYYCARDSYYSYDGFAYWGQGTLVTVSSGGGGSGGGGSGGGGSGGGGSEIVLTQSPDFQSVTPKEKVTITCSASSSVSYMHWYQQKPDQSPKRLIYDTSKLASGVPSRFSGSGSGTDFTLTINSLEAEDAATYYCQQWSSNPPTFGCGTKVEIKGGGGSGGGGSDKTHTCPPCPAPEAAGGPSVFLFPPKPKDTLMISRTPEVTCVVVDVSHEDPEVKFNWYVDGVEVHNAKTKPREEQYNSTYRVVSVLTVLHQDWLNGKEYKCKVSNKALPAPIEKTISKAKGQPREPQVCTLPPSREEMTKNQVSLSCAVKGFYPSDIAVEWESNGQPENNYKTTPPVLDSDGSFFLVSKLTVDKSRWQQGNVFSCSVMHEALHNHYTQKSLSLSPGK
light: DIQMTQSPSSLSASVGDRVTITCRASQDIGSNLNWLQQKPGKAIKRLIYATFGLDSGVPSRFSGSRSGTDFTLTISSLQPEDFATYYCQQYASFPYTFGGGTKVEIKRTVAAPSVFIFPPSDEQLKSGTASVVCLLNNFYPREAKVQWKVDNALQSGNSQESVTEQDSKDSTYSLSSTLTLSKADYEKHKVYACEVTHQGLSSPVTKSFNRGEC
On to B3, for which the “Ratio of EC50 (relative to ATG-Bis-40E9)” value with CD3 on Jurkat cells came to 167 ratio. In the test with GPRC5D on MM.1S cells [3], the “Ratio of EC50 (relative to ATG-Bis-40E9), luciferase assay on MM.1S” value stood at 1.33 ratio and the “Ratio of Top RLU (relative to ATG-Bis-40E9), luciferase assay on MM.1S” value was determined as 0.75 ratio. In the test with GPRC5D on MM.1S cells [4], the “Ratio of IC50 (relative to ATG-Bis-40E9)” value was found to be 1.06 ratio and the “Ratio of Top cytotoxicity (relative to ATG-Bis-40E9), MM.1S cytotoxicity” value came out at 1 ratio.

B4: Bis-40E9-L2H3-D105R.H (bispecific antibody)
heavy 1: not shown
heavy 2: EVQLVQSGAEVKKPGASVKVSCKASGYTFTSYVIHWVRQAPGQGLEWMGYFNPYNDGTKYNEEFKGRVTLTSDKSTSTAYMELRSLRSDDTAVYYCARGGVRRYFDVWGQGTTVTVSSASTKGPSVFPLAPSSKSTSGGTAALGCLVKDYFPEPVTVSWNSGALTSGVHTFPAVLQSSGLYSLSSVVTVPSSSLGTQTYICNVNHKPSNTKVDKKVEPKSCGGGGSGGGGSEVQLVQSGAEVKKPGSSVKVSCKASGYTFSSYVIHWVRQAPGQCLEWMGYINPYNDVIKYNEKFKGRVTLTSDKSTSTAYMELSSLRSEDTAVYYCARDSYYSYRGFAYWGQGTLVTVSSGGGGSGGGGSGGGGSGGGGSEIVLTQSPDFQSVTPKEKVTITCSASSSVSYMHWYQQKPDQSPKRLIYDTSKLASGVPSRFSGSGSGTDFTLTINSLEAEDAATYYCQQWSSNPPTFGCGTKVEIKGGGGSGGGGSDKTHTCPPCPAPEAAGGPSVFLFPPKPKDTLMISRTPEVTCVVVDVSHEDPEVKFNWYVDGVEVHNAKTKPREEQYNSTYRVVSVLTVLHQDWLNGKEYKCKVSNKALPAPIEKTISKAKGQPREPQVCTLPPSREEMTKNQVSLSCAVKGFYPSDIAVEWESNGQPENNYKTTPPVLDSDGSFFLVSKLTVDKSRWQQGNVFSCSVMHEALHNHYTQKSLSLSPGK
light: DIQMTQSPSSLSASVGDRVTITCRASQDIGSNLNWLQQKPGKAIKRLIYATFGLDSGVPSRFSGSRSGTDFTLTISSLQPEDFATYYCQQYASFPYTFGGGTKVEIKRTVAAPSVFIFPPSDEQLKSGTASVVCLLNNFYPREAKVQWKVDNALQSGNSQESVTEQDSKDSTYSLSSTLTLSKADYEKHKVYACEVTHQGLSSPVTKSFNRGEC
notes: as for B2
As for B4, in the test with CD3 on Jurkat cells, the “Ratio of EC50 (relative to ATG-Bis-40E9)” value was determined as 4.53 ratio and the “Ratio of Top MFI (relative to ATG-Bis-40E9)” value stood at 1.17 ratio. In the test with GPRC5D on MM.1S cells [3], the “Ratio of EC50 (relative to ATG-Bis-40E9), luciferase assay on MM.1S” value came to 1.32 ratio and the “Ratio of Top RLU (relative to ATG-Bis-40E9), luciferase assay on MM.1S” value stood at 0.79 ratio. In addition, in the test with GPRC5D on MM.1S cells [4], the “Ratio of IC50 (relative to ATG-Bis-40E9)” value was determined as 0.86 ratio and the “Ratio of Top cytotoxicity (relative to ATG-Bis-40E9), MM.1S cytotoxicity” value amounted to 1.01 ratio.
